Data: the supplement of paper PMC11246515
± gives the standard deviation of the averaged measurements.

Assay: total protein half-life in vivo (active degradation + dilution); higher = more stable protein
[1] = E. coli NCM3722 delta-clpP delta-lon delta-hslV, growth: N-lim chemostat, doubling time 6 h
[2] = E. coli NCM3722 delta-clpP, growth: N-lim chemostat, doubling time 6 h
[3] = E. coli NCM3722 delta-hslV, growth: N-lim chemostat, doubling time 6 h
[4] = E. coli NCM3722 delta-lon, growth: N-lim chemostat, doubling time 6 h
[5] = E. coli NCM3722 delta-smpB, growth: N-lim chemostat, doubling time 6 h
[6] = wild type E. coli NCM3722, growth: C-lim chemostat, doubling time 3 h
[7] = wild type E. coli NCM3722, growth: C-lim chemostat, doubling time 6 h
[8] = wild type E. coli NCM3722, growth: C-lim chemostat, doubling time 12 h
[9] = wild type E. coli NCM3722, growth: N-lim chemostat, doubling time 6 h
[10] = wild type E. coli NCM3722, growth: N-lim chemostat, doubling time 12 h
[11] = wild type E. coli NCM3722, growth: P-lim chemostat, doubling time 6 h
[12] = wild type E. coli NCM3722, growth: P-lim chemostat, doubling time 12 h

Row | Sequence | total protein half-life in vivo [1] | total protein half-life in vivo [2] | total protein half-life in vivo [3] | total protein half-life in vivo [4] | total protein half-life in vivo [5] | total protein half-life in vivo [6] | total protein half-life in vivo [7] | total protein half-life in vivo [8] | total protein half-life in vivo [9] | total protein half-life in vivo [10] | total protein half-life in vivo [11] | total protein half-life in vivo [12]
1 | MTELPIDENTPRILIVEDEPKLGQLLIDYLRAASYAPTLISHGDQVLPYVRQTPPDLILLDLMLPGTDGLTLCREIRRFSDIPIVMVTAKIEEIDRLLGLEIGADDYICKPYSPREVVARVKTILRRCKPQRELQQQDAESPLIIDEGRFQASWRGKMLDLTPAEFRLLKTLSHEPGKVFSREQLLNHLYDDYRVVTDRTIDSHIKNLRRKLESLDAEQSFIRAVYGVGYRWEADACRIV | 4.22 ± 0.48 h | 4.1 ± 0.35 h | 4.1 ± 0.073 h | 4.58 ± 0.1 h | 4.01 ± 0.14 h | 2.89 ± 0.092 h | 5.54 ± 0.16 h | 11.7 ± 2.5 h | 4.05 ± 0.21 h | 6.62 ± 0.32 h | 5.58 ± 0.26 h | 13.5 ± 0.37 h
2 | MSNVQEWQQLANKELSRREKTVDSLVHQTAEGIAIKPLYTEADLDNLEVTGTLPGLPPYVRGPRATMYTAQPWTIRQYAGFSTAKESNAFYRRNLAAGQKGLSVAFDLATHRGYDSDNPRVAGDVGKAGVAIDTVEDMKVLFDQIPLDKMSVSMTMNGAVLPVLAFYIVAAEEQGVTPDKLTGTIQNDILKEYLCRNTYIYPPKPSMRIIADIIAWCSGNMPRFNTISISGYHMGEAGANCVQQVAFTLADGIEYIKAAISAGLKIDDFAPRLSFFFGIGMDLFMNVAMLRAARYLWSEAVSGFGAQDPKSLALRTHCQTSGWSLTEQDPYNNVIRTTIEALAATLGGTQSLHTNAFDEALGLPTDFSARIARNTQIIIQEESELCRTVDPLAGSYYIESLTDQIVKQARAIIQQIDEAGGMAKAIEAGLPKRMIEEASAREQSLIDQGKRVIVGVNKYKLDHEDETDVLEIDNVMVRNEQIASLERIRATRDDAAVTAALNALTHAAQHNENLLAAAVNAARVRATLGEISDALEVAFDRYLVPSQCVTGVIAQSYHQSEKSASEFDAIVAQTEQFLADNGRRPRILIAKMGQDGHDRGAKVIASAYSDLGFDVDLSPMFSTPEEIARLAVENDVHVVGASSLAAGHKTLIPELVEALKKWGREDICVVAGGVIPPQDYAFLQERGVAAIYGPGTPMLDSVRDVLNLISQHHD | – | – | – | – | – | 3.42 h | – | – | – | – | – | –
3 | MALTKAEMSEYLFDKLGLSKRDAKELVELFFEEIRRALENGEQVKLSGFGNFDLRDKNQRPGRNPKTGEDIPITARRVVTFRPGQKLKSRVENASPKDE [P0A6X7] | – | 6.46 ± 1 h | – | 7.06 ± 0.79 h | 5.2 ± 0.41 h | 3.249 ± 0.0028 h | – | – | 5.83 ± 0.23 h | – | 6.33 ± 0.39 h | 11.7 ± 1.9 h
4 | MRVNLLITMIIFALIWPVTALRAAVSKTTWADAPAREFVFVENNSDDNFFVTPGGALDPRLTGANRWTGLKYTGSGTIYQQSLGYIDNGYNTGLYTNWKFDMWLENSPVSSPLTGLRCINWYAGCNMTTSLILPQTTDASGFYGATVTSGGAKWMHGMLSDAFYQYMQQMPVGSSFTMTINACQTSVNYDASSGARCKDQASGNWYVRNVTHTKAANLRLINTHSLAEVFINSDGVPTLGEGNADCRTQTIGSRSGLSCKMVNYTLQTNGLSNTSIHIFPAIANSSLASAVGAYDMQFSLNGSSWKPVSNTAYYYTFNEMKSADSIYVFFSSNFFKQMVNLGISDINTKDLFNFRFQNTTSPESGWYEFSTSNTLIIKPRDFSISIISDEYTQTPSREGYVGSGESALDFGYIVTTSGKTAADEVLIKVTGPAQVIGGRSYCVFSSDDGKAKVPFPATLSFITRNGATKTYDAGCDDSWRDMTDALWLTTPWTDISGEVGQMDKTTVKFSIPMDNAISLRTVDDNGWFGEVSASGEIHVQATWRNIN | 5.48 h | 4.16 ± 0.31 h | 4.45 ± 0.53 h | – | 5.38 ± 0.3 h | 2.41 h | 5.13 ± 0.19 h | 10.2 ± 0.39 h | 5.187 ± 0.038 h | 10.3 h | 6.55 h | 10.9 ± 2.3 h
5 | MDTPRPQLLDFQFHQNNDSFTLHFQQRLILTHSKDNPCLWIGSGIADIDMFRGNFSIKDKLQEKIALTDAIVSQSPDGWLIHFSRGSDISATLNISADDQGRLLLELQNDNLNHNRIWLRLAAQPEDHIYGCGEQFSYFDLRGKPFPLWTSEQGVGRNKQTYVTWQADCKENAGGDYYWTFFPQPTFVSTQKYYCHVDNSCYMNFDFSAPEYHELALWEDKATLRFECADTYISLLEKLTALLGRQPELPDWIYDGVTLGIQGGTEVCQKKLDTMRNAGVKVNGIWAQDWSGIRMTSFGKRVMWNWKWNSENYPQLDSRIKQWNQEGVQFLAYINPYVASDKDLCEEAAQHGYLAKDASGGDYLVEFGEFYGGVVDLTNPEAYAWFKEVIKKNMIELGCGGWMADFGEYLPTDTYLHNGVSAEIMHNAWPALWAKCNYEALEETGKLGEILFFMRAGSTGSQKYSTMMWAGDQNVDWSLDDGLASVVPAALSLAMTGHGLHHSDIGGYTTLFEMKRSKELLLRWCDFSAFTPMMRTHEGNRPGDNWQFDGDAETIAHFARMTTVFTTLKPYLKEAVALNAKSGLPVMRPLFLHYEDDAHTYTLKYQYLLGRDILVAPVHEEGRSDWTLYLPEDNWVHAWTGEAFRGGEVTVNAPIGKPPVFYRADSEWAALFASLKSI | 5.5 h | 4.66 ± 0.079 h | 4.79 ± 0.52 h | – | 4.78 ± 0.19 h | 3.06 ± 0.37 h | – | 12.6 ± 3.2 h | 4.02 h | 7.22 h | 5.4 ± 0.092 h | 10.4 ± 0.25 h
6 | MEMYFKRMKDEWTGLVEQADPPIRAKAAEIAVAHAHYLSIEFYRIVRIDPHAEEFLSNEQVERQLKSAMERWIINVLSAQVDDVERLIQIQHTVAEVHARIGIPVEIVEMGFRVLKKILYPVIFSSDYSAAEKLQVYHFSINSIDIAMEVMTRAFTFSDSSASKEDENYRIFSLLENAEEEKERQIASILSWEIDIIYKILLDSDLGSSLPLSQADFGLWFNHKGRHYFSGIAEVGHISRLIQDFDGIFNQTMRNTRNLNNRSLRVKFLLQIRNTVSQIITLLRELFEEVSRHEVGMDVLTKLLNRRFLPTIFKREIAHANRTGTPLSVLIIDVDKFKEINDTWGHNTGDEILRKVSQAFYDNVRSSDYVFRYGGDEFIIVLTEASENETLRTAERIRSRVEKTKLKAANGEDIALSLSIGAAMFNGHPDYERLIQIADEALYIAKRRGRNRVELWKASL [P0AA89] | 6.71 ± 1.4 h | 3.48 ± 0.94 h | 2.854 ± 0.0076 h | 4.26 ± 0.88 h | 2.81 ± 0.03 h | 1.66 ± 0.26 h | 3.16 ± 0.017 h | 4.49 ± 0.37 h | 3.21 ± 0.42 h | 4.83 ± 0.27 h | 1.49 ± 0.32 h | 3.09 ± 0.069 h
7 | MASGDLVRYVITVMLHEDTLTEINELNNYLTRDGFLLTMTDDEGNIHELGTNTFGLISTQSEEEIRELVSGLTQSATGKDPEITITTWEEWNSNRK | 6.09 ± 0.66 h | 4.87 h | 4.69 h | – | 4.44 ± 0.47 h | 3.04 ± 0.33 h | 4.88 ± 0.37 h | 10.1 h | 6.08 h | 8.21 h | 4.86 ± 0.83 h | 11.1 ± 0.71 h
8 | MKSKDTLKWFPAQLPEVRIILGDAVVEVAKQGRPINTRTLLDYIEGNIKKTSWLDNKELLQTAISVLKDNQNLNGKM | – | – | – | – | 2.39 h | – | – | 4.92 h | – | – | – | –
